System: K4 kissing-loop RNA reporter
Test: apparent KD of K4 kissing-loop reporter; higher = weaker reporter binding
Settings: Eterna round: R107
Experimental: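 RNA-MaP round R107: designed RNA switches with theophylline, tryptophan, arginine or FMN aptamers are transcribed on-chip within common flanks. They are titrated with a labelled K4 kissing-loop RNA reporter in RNA-MaP buffer (100 mM Tris pH 7.5, 80 mM KCl, 4 mM MgCl2), without ligand or with the indicated ligand. Median apparent KD per design.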

[1] = input ligand: theophylline 20 uM
[2] = input ligand: tryptophan 2.4 mM
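Also: bound reporter read as fluorescence of individual clusters on recovered sequencing chips by microscopy, with normalized cluster intensities fitted with a binding model.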

GGAGGUUGGUGCGAUACCAGACCAGCAGUGAUGUUGCGCCAAAGUGAGUGAUGUUCACCGGUCCCUUGGCAGCGCAUUCCUUUAG [Same State Theophylline B GF 14]
apparent KD of K4 kissing-loop reporter (input ligand: FMN 200 uM): 964 nM
apparent KD of K4 kissing-loop reporter (input ligand: arginine 13.2 mM): 1110 nM
apparent KD of K4 kissing-loop reporter (input ligand: none): 1440 nM
apparent KD of K4 kissing-loop reporter [1]: 1120 nM
apparent KD of K4 kissing-loop reporter [2]: 1110 nM

GGAGUAACCUGGGAUACCAGUCGGAGGCCUAGGGAUCGGAGUGAUGUUCUGGGAUGUUUCGGCCCUUGGCAGCUCUGGGUCUCCG [#2 Exclusion - Theophylline B Attempt #2 (HarryS)]
apparent KD of K4 kissing-loop reporter (input ligand: FMN 200 uM): 184 nM
apparent KD of K4 kissing-loop reporter (input ligand: arginine 13.2 mM): 105 nM
apparent KD of K4 kissing-loop reporter (input ligand: none): 151 nM
apparent KD of K4 kissing-loop reporter [1]: 158 nM
apparent KD of K4 kissing-loop reporter [2]: 144 nM

GGAUAGGACAGAGGAUAUUGGUAGUGAUGUUACCAAAUAAAUAAACAGUCUACAAAGUAGGCUGACCAAGAAGGCUGUCCUAUCG [FmnBX 24 #SwitchBubble #StaticStem #Palindromic]
apparent KD of K4 kissing-loop reporter (input ligand: FMN 200 uM): 226 nM
apparent KD of K4 kissing-loop reporter (input ligand: arginine 13.2 mM): 79.1 nM
apparent KD of K4 kissing-loop reporter (input ligand: none): 85.2 nM
apparent KD of K4 kissing-loop reporter [1]: 80.1 nM
apparent KD of K4 kissing-loop reporter [2]: 74.7 nM

GGAUAGGAUAGAGGAUAUGGAAAACACAAAAGUGACUUGUUGUGUUUAUCCAUAGGGAGUGAUGUUCCAGAAGGCUGUCCUAUCG [MatMod 23 - Jieux - Exclusion - FMN B]
apparent KD of K4 kissing-loop reporter (input ligand: FMN 200 uM): 229 nM
apparent KD of K4 kissing-loop reporter (input ligand: arginine 13.2 mM): 169 nM
apparent KD of K4 kissing-loop reporter (input ligand: none): 169 nM
apparent KD of K4 kissing-loop reporter [1]: 164 nM
apparent KD of K4 kissing-loop reporter [2]: 136 nM

GGAUAGGAUAGAGGAUAUGGGUUAGGCAAGAAUAACUUGUCUAGUAAAUCCAUGAGGAGUGAUGUUCCAGAAGGCUGUCCUAUCG [MatMod 4 - Jieux - Exclusion - FMN B]
apparent KD of K4 kissing-loop reporter (input ligand: FMN 200 uM): 429 nM
apparent KD of K4 kissing-loop reporter (input ligand: arginine 13.2 mM): 125 nM
apparent KD of K4 kissing-loop reporter (input ligand: none): 117 nM
apparent KD of K4 kissing-loop reporter [1]: 127 nM
apparent KD of K4 kissing-loop reporter [2]: 98.3 nM

GGAUAGGAUAGAGGAUAUGGUAUAUGCAAGAAUAACUUGUCAUGUAAAUCCAUGAGGAGUGAUGUUCCAGAAGGCUGUCCUAUCG [MatMod 10 - Jieux - Exclusion - FMN B]
apparent KD of K4 kissing-loop reporter (input ligand: FMN 200 uM): 646 nM
apparent KD of K4 kissing-loop reporter (input ligand: arginine 13.2 mM): 324 nM
apparent KD of K4 kissing-loop reporter (input ligand: none): 480 nM
apparent KD of K4 kissing-loop reporter [1]: 519 nM
apparent KD of K4 kissing-loop reporter [2]: 379 nM

GGAUCUUCCAGUGAUGUUGGUUAAUAUAUCAAGGAUAUGACGAAAGUCAGAAGGUGAAAGACUGGACAAAGUCCAGUCGGAUCCA [KL-SSFMN-A19]
apparent KD of K4 kissing-loop reporter (input ligand: FMN 200 uM): 444 nM
apparent KD of K4 kissing-loop reporter (input ligand: arginine 13.2 mM): 573 nM
apparent KD of K4 kissing-loop reporter (input ligand: none): 599 nM
apparent KD of K4 kissing-loop reporter [1]: 444 nM
apparent KD of K4 kissing-loop reporter [2]: 430 nM

GGAUGGUAGGCGGCCGCCACUAAAACUGAACACAUACAAGCCAGUGAUGUUGGUAUGAUGGAGUAUAGGACCGGGCCUAGAUAGA [Exclusion - Tryptophan B (Freestyle 4)]
apparent KD of K4 kissing-loop reporter (input ligand: FMN 200 uM): 452 nM
apparent KD of K4 kissing-loop reporter (input ligand: arginine 13.2 mM): 367 nM
apparent KD of K4 kissing-loop reporter (input ligand: none): 472 nM
apparent KD of K4 kissing-loop reporter [1]: 420 nM
apparent KD of K4 kissing-loop reporter [2]: 421 nM

GGCACUUUUGCUUGGAACCGUCAAGCUCGAUAGGAUAUGCCGAAAGGCAGAAGGAUUGACCUACAGAGUGAUGUUCUGCGUGCCU
apparent KD of K4 kissing-loop reporter (input ligand: FMN 200 uM): 791 nM
apparent KD of K4 kissing-loop reporter (input ligand: arginine 13.2 mM): 378 nM
apparent KD of K4 kissing-loop reporter (input ligand: none): 830 nM
apparent KD of K4 kissing-loop reporter [1]: 288 nM
apparent KD of K4 kissing-loop reporter [2]: 408 nM

GGCAGUGAUGUUGCCAGUGGCAGAUGUGAAGGAGCGCGGUGAGACGCAGGUAGGUCGCACAUUGAAAUUGCUGUCACUAAAAUGC [#02 K4 Arginine A Exclusion]
apparent KD of K4 kissing-loop reporter (input ligand: FMN 200 uM): 294 nM
apparent KD of K4 kissing-loop reporter (input ligand: arginine 13.2 mM): 300 nM
apparent KD of K4 kissing-loop reporter (input ligand: none): 273 nM
apparent KD of K4 kissing-loop reporter [1]: 314 nM
apparent KD of K4 kissing-loop reporter [2]: 215 nM

GGCAGUGAUGUUGCCUUCGCAAUGCAUGCAGAGGAUAUUCGUUUGGGAAGAAGGCUGCAGCGUUCUCUCGAGUGAUGUUCGGGUG [Same State FMN A GF 19]
apparent KD of K4 kissing-loop reporter (input ligand: FMN 200 uM): 130 nM
apparent KD of K4 kissing-loop reporter (input ligand: arginine 13.2 mM): 168 nM
apparent KD of K4 kissing-loop reporter (input ligand: none): 195 nM
apparent KD of K4 kissing-loop reporter [1]: 181 nM
apparent KD of K4 kissing-loop reporter [2]: 177 nM

GGCGGCCGCGCGAAAGCGCGGCCGGCCGAUACCAGCGCGCCGGCGCGCCCUUGGCAGCGGCGCCGAGUGAUGUUCGGCCUGCCGU [#2 Same State - Theophylline A Attempt #12 (HarryS)]
apparent KD of K4 kissing-loop reporter (input ligand: FMN 200 uM): 144 nM
apparent KD of K4 kissing-loop reporter (input ligand: arginine 13.2 mM): 101 nM
apparent KD of K4 kissing-loop reporter (input ligand: none): 112 nM
apparent KD of K4 kissing-loop reporter [1]: 134 nM
apparent KD of K4 kissing-loop reporter [2]: 125 nM

GGCUCCUACGCAGGAUAUAGUAGCCGAGAGUGAUGUUCUACGGCGUUUGCCGAUUUAGUCACAGAUCUAGAAGGGUGUAGGAGCC [XFMN-B PiClone]
apparent KD of K4 kissing-loop reporter (input ligand: FMN 200 uM): 1040 nM
apparent KD of K4 kissing-loop reporter (input ligand: arginine 13.2 mM): 660 nM
apparent KD of K4 kissing-loop reporter (input ligand: none): 1130 nM
apparent KD of K4 kissing-loop reporter [1]: 756 nM
apparent KD of K4 kissing-loop reporter [2]: 1000 nM

GGCUUGCUAGUGAUGUUAGCAUUUUCUGAAGGAGCGCGUGAAAACGCAGGUAGGUCGCAGAACCUUGCCAACUAUUUUAGUUGCC [Ex Arginine A K4 27]
apparent KD of K4 kissing-loop reporter (input ligand: FMN 200 uM): 101 nM
apparent KD of K4 kissing-loop reporter (input ligand: arginine 13.2 mM): 113 nM
apparent KD of K4 kissing-loop reporter (input ligand: none): 94.3 nM
apparent KD of K4 kissing-loop reporter [1]: 97.3 nM
apparent KD of K4 kissing-loop reporter [2]: 82.4 nM

GGGAGGAGUGGUGUUGAUUAAGAAGCGGAAGGAGCGCCGAAGAAGGCAGGUAGGUCGCCGGAAUAUAGUGAUGUUAUAUAGAGGG [ExArg.E]
apparent KD of K4 kissing-loop reporter (input ligand: FMN 200 uM): 529 nM
apparent KD of K4 kissing-loop reporter (input ligand: arginine 13.2 mM): 323 nM
apparent KD of K4 kissing-loop reporter (input ligand: none): 230 nM
apparent KD of K4 kissing-loop reporter [1]: 406 nM
apparent KD of K4 kissing-loop reporter [2]: 252 nM

GGGAGUAGUGCGGCCGCCACUGUGAAAGAAGAAGAAUAUAGUGAUGUUAUAUAGGAAAGGAAGAAUAGGACCGGGCAUUAGAUUU [SSTRyptB.K]
apparent KD of K4 kissing-loop reporter (input ligand: FMN 200 uM): 213 nM
apparent KD of K4 kissing-loop reporter (input ligand: arginine 13.2 mM): 226 nM
apparent KD of K4 kissing-loop reporter (input ligand: none): 260 nM
apparent KD of K4 kissing-loop reporter [1]: 235 nM
apparent KD of K4 kissing-loop reporter [2]: 183 nM

GGGUAUUACGGAGGAUAUGCACUGAGGAGGAGAAUAUAGUGAUGUUAUAUAAGAGGAAGGAGAAGAGUAGAAGGCCGUGGUAUUG [SSFMNB.H]
apparent KD of K4 kissing-loop reporter (input ligand: FMN 200 uM): 247 nM
apparent KD of K4 kissing-loop reporter (input ligand: arginine 13.2 mM): 217 nM
apparent KD of K4 kissing-loop reporter (input ligand: none): 280 nM
apparent KD of K4 kissing-loop reporter [1]: 277 nM
apparent KD of K4 kissing-loop reporter [2]: 190 nM

GGGUGUAGUGCGGCCGCCACUGUGAUAGUAGAAGAGUAUAGUGAUGUUAUAUAGGAUUAAUAGAAUAGGACCGGGCAUUAGACUU [#24 K4 Tryptophan B Same State]
apparent KD of K4 kissing-loop reporter (input ligand: FMN 200 uM): 348 nM
apparent KD of K4 kissing-loop reporter (input ligand: arginine 13.2 mM): 340 nM
apparent KD of K4 kissing-loop reporter (input ligand: none): 368 nM
apparent KD of K4 kissing-loop reporter [1]: 395 nM
apparent KD of K4 kissing-loop reporter [2]: 209 nM

GGUAGCAUGGCGGCCGCCACUACUGACAGCUGUCUGUUCUGGGUACCAGGGAGUGAUGUUCCCGGUAGGACCGGGCCAUGCUACC
apparent KD of K4 kissing-loop reporter (input ligand: FMN 200 uM): 135 nM
apparent KD of K4 kissing-loop reporter (input ligand: arginine 13.2 mM): 106 nM
apparent KD of K4 kissing-loop reporter (input ligand: none): 114 nM
apparent KD of K4 kissing-loop reporter [1]: 112 nM
apparent KD of K4 kissing-loop reporter [2]: 266 nM

GGUAGCAUGGCGGCCGCCACUAUUACUGGAUCGGAAACGAUCCAGUAUUUAUGAGUGAUGUUCAUUAGGACCGGGCCAUGCUACC
apparent KD of K4 kissing-loop reporter (input ligand: FMN 200 uM): 342 nM
apparent KD of K4 kissing-loop reporter (input ligand: arginine 13.2 mM): 301 nM
apparent KD of K4 kissing-loop reporter (input ligand: none): 304 nM
apparent KD of K4 kissing-loop reporter [1]: 305 nM
apparent KD of K4 kissing-loop reporter [2]: 208 nM

GGUAGCAUGGCGGCCGCCACUUUAUACUCGGUCGUUGGCGUCGUAAGUGAUGUUUACAUUCGCAAAAGGACCGGGCCAUGCUACC
apparent KD of K4 kissing-loop reporter (input ligand: FMN 200 uM): 97.8 nM
apparent KD of K4 kissing-loop reporter (input ligand: arginine 13.2 mM): 56.6 nM
apparent KD of K4 kissing-loop reporter (input ligand: none): 81.2 nM
apparent KD of K4 kissing-loop reporter [1]: 123 nM
apparent KD of K4 kissing-loop reporter [2]: 133 nM

From the supplement of paper PMC9170038
